Results on three molecules are retold here after PMC2726290, “Decoding of Methylated Histone H3 Tail by the Pygo-BCL9 Wnt Signaling Complex” (Molecular Cell, 2008).

In assay [1] the target is T1, hPHD-HD1 complex (hPygo1 PHD 333-402 with hBCL9 HD1) (human, UniProt Q9Y3Y4 333-402; O00512 177-205).
T1 construct: PHD finger of human Pygo1, amino acids 333-402; also called binary complex; human PHD-HD1 complex; source: E. coli BL21-CodonPlus(DE3)-RIL, coexpressed from a bicistronic vector, purified as a complex; not shown: GST, N-terminal, cleaved; MBP, N-terminal, cleaved
T1 sequence (looked up) 1: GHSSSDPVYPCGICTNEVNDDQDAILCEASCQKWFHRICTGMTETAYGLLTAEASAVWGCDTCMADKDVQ
T1 sequence (looked up) 2: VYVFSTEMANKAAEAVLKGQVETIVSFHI
Put plainly: ITC; protein dialysed into 100 mM NaCl, 25 mM Tris-HCl (pH 8.0), 10 uM ZnCl2, 2 mM beta-mercaptoethanol; histone peptides with free PHD or PHD-HD1 complex; one-site model. The conditions noted are these: both partners purified.

Another assay has as its target T2, hPygo1 PHD finger E349A (human, UniProt Q9Y3Y4 333-402, E349A).
T2 construct: PHD finger of human Pygo1 with E349A; source: E. coli, purified; not shown: GST, N-terminal, cleaved
T2 sequence (looked up): T1 sequence (looked up) 1 with E17A
Described as above. The following applies: both partners purified.

Changes are numbered by the printed parent chain.

B1: H3R2me2aK4me2 18-mer histone H3 tail peptide (peptide, UniProt P68431 2-19, looked up)
peptide: ARTKQTARKSTGGKAPRK
modifications: asymmetric dimethyl-arginine at R2 (R2me2a); dimethyl-lysine at K4
notes: histone H3 tail, 18-mer; Only the first seven residues are modelled in the structure; also called 18-mer histone H3 tail carrying both K4me2 and asymmetrically methylated R2 (R2me2a)
What is called Kd is the free concentration of one partner at which half of the binding sites on the other are occupied at equilibrium, for simple one-to-one binding. In assay [1], B1 gave an equilibrium dissociation constant (Kd) of 2.1 µM.

B2: H3K4me2 9-mer histone H3 tail peptide (peptide, UniProt P68431 2-10, looked up)
peptide: ARTKQTARK
modifications: dimethyl-lysine at K4
notes: histone H3 tail, 9-mer; the limits follow from the truncated form 'spanning R2-K9 (without A1)'; Only the first seven residues are modelled in the structure; also called 9-mer H3K4me2 peptide
Molecule B2 gave an equilibrium dissociation constant (Kd) in assay [1] of 11 µM.
As to ARTKQTARKSTGGKA (peptide, UniProt P68431 2-16, looked up, trimethyl-lysine at K4, histone H3 tail, 15-mer) [H3K4me3 15-mer histone H3 tail peptide], the Kd with hPygo1 PHD finger E349A was 22 µM.
